Key:
[1] = target: T1, full length pepsinized type I collagen from mouse tail tendon (mouse, UniProt P11087 152-1207; Q01149 86-1125); experiment: SPR; BIAcore X; type I collagen from mouse tail tendon immobilised on a CM5 chip by amide coupling (about 6,000 RU); HSP47 flowed over; 20°C; HBS-P (10 mM Hepes pH 7.4, 150 mM NaCl, 0.005% Surfactant P20); 10 ul/min; Langmuir binding model; details: both partners purified
T1 construct: collagen alpha-1(I) chain, mouse; collagen alpha-2(I) chain, mouse; Chain composition (two alpha1(I), one alpha2(I)) as the introduction tells of type I collagen in general; source: purified from mouse tail tendon (pepsinized); copies: 2 + 1

[2] = target: T2, type I collagen from rat tail (rat, UniProt P02454 152-1207; P02466 86-1125); experiment: ELISA; ELISA-like binding assay; type I collagen from rat tail coated at 10 ug/mL on MaxiSorp plates (coating of GPR-foldon not described); His-tagged HSP47 at 1.2 to 5,000 nM in solution; detected with HRP-coupled anti-His antibody; four-parameter logistic fit; details: both partners purified
T2 construct: collagen alpha-1(I) chain, rat; collagen alpha-2(I) chain, rat; Chain composition as the introduction tells of type I collagen in general; also called full length type I collagen; source: bought: BD Bioscience; copies: 2 + 1
T2 sequence (P02454 152-1207, chain 1 of 2): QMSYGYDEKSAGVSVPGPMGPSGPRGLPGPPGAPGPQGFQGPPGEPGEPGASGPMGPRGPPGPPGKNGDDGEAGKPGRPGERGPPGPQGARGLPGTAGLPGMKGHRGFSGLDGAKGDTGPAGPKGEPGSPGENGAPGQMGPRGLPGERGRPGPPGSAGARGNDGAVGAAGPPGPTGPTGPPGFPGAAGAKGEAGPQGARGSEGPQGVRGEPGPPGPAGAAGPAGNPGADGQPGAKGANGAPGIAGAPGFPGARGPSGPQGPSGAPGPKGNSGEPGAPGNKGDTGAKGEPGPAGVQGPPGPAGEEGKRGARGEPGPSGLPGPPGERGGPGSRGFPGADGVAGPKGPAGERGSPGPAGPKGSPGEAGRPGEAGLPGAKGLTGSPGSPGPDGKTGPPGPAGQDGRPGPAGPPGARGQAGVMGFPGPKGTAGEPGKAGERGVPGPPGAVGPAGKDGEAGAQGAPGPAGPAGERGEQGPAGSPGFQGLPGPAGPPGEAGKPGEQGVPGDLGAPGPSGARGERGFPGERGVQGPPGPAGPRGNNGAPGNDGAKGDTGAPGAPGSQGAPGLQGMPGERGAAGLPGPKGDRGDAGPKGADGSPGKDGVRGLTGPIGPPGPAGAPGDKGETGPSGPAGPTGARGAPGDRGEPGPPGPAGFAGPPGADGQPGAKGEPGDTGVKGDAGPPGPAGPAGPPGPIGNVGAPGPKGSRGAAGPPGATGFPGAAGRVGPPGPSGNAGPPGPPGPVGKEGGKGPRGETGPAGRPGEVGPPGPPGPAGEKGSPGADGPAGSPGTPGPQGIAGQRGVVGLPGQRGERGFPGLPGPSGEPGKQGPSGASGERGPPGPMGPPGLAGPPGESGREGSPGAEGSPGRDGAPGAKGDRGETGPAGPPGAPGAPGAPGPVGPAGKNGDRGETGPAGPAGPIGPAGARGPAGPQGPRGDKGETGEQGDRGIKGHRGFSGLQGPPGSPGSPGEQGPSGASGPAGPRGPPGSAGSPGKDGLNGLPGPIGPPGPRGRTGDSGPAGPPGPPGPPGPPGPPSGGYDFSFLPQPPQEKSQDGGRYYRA
T2 sequence (P02466 86-1125, chain 2 of 2): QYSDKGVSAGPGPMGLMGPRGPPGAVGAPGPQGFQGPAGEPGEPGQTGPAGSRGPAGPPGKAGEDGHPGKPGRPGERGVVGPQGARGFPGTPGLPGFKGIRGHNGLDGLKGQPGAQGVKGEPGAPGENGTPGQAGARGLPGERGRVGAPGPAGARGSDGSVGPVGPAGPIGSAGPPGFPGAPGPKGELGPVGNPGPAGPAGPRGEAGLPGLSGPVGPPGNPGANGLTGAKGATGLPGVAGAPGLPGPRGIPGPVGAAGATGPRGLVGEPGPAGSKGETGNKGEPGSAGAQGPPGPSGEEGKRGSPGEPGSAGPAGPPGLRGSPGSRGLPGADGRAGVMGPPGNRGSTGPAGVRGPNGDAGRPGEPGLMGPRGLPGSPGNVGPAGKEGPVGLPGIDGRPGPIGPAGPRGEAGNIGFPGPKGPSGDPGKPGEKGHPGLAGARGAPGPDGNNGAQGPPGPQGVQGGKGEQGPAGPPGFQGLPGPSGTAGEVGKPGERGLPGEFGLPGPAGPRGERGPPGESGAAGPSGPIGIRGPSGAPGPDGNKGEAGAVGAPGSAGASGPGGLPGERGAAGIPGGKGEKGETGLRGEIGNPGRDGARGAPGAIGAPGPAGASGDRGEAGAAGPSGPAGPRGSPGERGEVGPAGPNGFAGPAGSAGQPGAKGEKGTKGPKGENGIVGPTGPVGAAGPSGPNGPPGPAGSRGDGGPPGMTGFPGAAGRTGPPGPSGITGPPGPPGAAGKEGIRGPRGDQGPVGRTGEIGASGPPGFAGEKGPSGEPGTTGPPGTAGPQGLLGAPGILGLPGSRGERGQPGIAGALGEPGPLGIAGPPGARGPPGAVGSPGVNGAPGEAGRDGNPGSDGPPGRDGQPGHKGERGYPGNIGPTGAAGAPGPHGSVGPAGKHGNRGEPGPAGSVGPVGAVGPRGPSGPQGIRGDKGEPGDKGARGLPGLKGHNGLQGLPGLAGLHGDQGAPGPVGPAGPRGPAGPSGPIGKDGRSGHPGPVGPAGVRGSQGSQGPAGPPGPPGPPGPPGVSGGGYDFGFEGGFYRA

T1 sequence (P11087 152-1207, chain 1 of 2): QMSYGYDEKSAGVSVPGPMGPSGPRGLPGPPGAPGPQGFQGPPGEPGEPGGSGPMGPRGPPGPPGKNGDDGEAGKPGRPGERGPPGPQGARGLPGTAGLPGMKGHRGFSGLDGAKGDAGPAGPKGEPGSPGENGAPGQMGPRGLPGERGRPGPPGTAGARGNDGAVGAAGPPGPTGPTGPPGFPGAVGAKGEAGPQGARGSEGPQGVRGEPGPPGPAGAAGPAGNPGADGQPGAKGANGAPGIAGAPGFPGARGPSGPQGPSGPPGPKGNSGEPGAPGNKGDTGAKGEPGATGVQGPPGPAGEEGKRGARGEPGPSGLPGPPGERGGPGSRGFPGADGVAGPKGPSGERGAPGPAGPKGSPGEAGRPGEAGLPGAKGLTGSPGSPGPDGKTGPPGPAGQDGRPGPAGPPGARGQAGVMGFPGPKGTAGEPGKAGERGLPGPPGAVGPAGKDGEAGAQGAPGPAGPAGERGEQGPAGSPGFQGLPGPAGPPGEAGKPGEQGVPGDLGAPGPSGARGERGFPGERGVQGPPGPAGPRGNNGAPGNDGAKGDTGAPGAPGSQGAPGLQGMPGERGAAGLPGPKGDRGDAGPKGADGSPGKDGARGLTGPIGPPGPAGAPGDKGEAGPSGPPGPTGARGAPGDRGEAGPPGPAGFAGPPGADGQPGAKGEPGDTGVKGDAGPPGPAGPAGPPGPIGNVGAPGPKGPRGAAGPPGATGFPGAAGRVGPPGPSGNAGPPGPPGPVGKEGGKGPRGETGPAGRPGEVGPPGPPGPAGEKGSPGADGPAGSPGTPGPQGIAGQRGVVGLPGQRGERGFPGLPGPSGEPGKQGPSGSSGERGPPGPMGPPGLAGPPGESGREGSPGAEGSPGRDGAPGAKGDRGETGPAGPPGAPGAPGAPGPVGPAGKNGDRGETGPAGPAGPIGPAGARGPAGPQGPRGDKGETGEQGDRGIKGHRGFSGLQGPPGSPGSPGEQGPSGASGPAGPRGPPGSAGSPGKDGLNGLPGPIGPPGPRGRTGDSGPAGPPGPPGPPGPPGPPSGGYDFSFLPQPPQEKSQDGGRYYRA
T1 sequence (Q01149 86-1125, chain 2 of 2): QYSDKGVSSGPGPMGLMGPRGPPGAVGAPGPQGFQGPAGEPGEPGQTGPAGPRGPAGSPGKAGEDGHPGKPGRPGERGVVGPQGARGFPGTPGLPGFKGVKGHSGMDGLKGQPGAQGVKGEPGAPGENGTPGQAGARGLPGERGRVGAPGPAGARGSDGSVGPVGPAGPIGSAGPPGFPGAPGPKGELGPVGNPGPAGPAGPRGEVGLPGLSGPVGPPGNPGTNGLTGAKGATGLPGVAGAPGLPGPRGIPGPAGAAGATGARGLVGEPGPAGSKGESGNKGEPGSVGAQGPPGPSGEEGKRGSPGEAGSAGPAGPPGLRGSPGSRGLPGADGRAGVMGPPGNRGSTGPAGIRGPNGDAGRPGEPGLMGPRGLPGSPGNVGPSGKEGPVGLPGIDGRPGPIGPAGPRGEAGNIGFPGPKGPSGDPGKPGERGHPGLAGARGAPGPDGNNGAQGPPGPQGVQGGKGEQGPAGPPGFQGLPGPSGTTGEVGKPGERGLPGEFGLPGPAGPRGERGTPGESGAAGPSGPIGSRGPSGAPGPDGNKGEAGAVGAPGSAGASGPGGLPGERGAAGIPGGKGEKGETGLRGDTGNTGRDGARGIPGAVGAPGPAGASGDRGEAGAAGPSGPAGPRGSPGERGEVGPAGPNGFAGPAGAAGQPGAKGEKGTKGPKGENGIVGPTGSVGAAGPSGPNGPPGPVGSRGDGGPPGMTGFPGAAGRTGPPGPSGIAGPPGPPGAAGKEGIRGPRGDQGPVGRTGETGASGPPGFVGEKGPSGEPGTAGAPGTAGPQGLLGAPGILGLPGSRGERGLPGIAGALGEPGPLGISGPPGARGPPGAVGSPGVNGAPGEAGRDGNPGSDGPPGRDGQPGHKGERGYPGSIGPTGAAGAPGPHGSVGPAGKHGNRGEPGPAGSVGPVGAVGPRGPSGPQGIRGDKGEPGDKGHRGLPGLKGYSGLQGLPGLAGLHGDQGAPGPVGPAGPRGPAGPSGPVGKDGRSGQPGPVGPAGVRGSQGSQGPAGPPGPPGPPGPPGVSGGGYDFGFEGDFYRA

Binder	Kd [1] [nM]	Kd [2] [nM]
recombinant wild-type canine HSP47 (natural protein, UniProt C7C419 36-418, looked up, HSP47 (serpin H1), canine, residues 36-418 printed as 36LSP; RDEL418, in a pJExpress411 vector; The methods describe a strep-tagged construct; the ELISA methods speak of His-tagged HSP47 proteins detected by an anti-His antibody; also called wild-type HSP47; WT HSP47; source: E. coli BL21 (DE3), purified (Streptactin column, Superdex 200 SEC)) LSPKAATLAERSAGLAFSLYQAMAKDQAVENILLSPVVVASSLGLVSLGGKATTASQAKAVLSAEQLRDEEVHAGLGELLRSLSNSTARNVTWKLGSRLYGPSSVSFAEDFVRSSKQHYNCEHSKINFRDKRSALQSINEWAAQTTDGKLPEVTKDVERTDGALLVNAMFFKPHWDEKFHHKMVDNRGFMVTRSYTVGVTMMHRTGLYNYYDDEKEKLQIVEMPLAHKLSSLIILMPHHVEPLERLEKLLTKEQLKIWMGKMQKKAVAISLPKGVVEVTHDLQKHLAGLGLTEAIDKNKADLSRMSGKKDLYLASVFHATAFEWDTEGNPFDQDIYGREELRSPKLFYADHPFIFLVRDTQSGSLLFIGRLVRPKGDKMRDEL	60	139
recombinant canine HSP47-R222S (natural protein, UniProt C7C419 36-418, looked up, HSP47 (serpin H1), canine, residues 36-418 (36LSP... RDEL418) with R222S introduced by Quikchange mutagenesis; The substitution is the one found in the human patient, placed in the canine protein; Strep tag by the purification methods, His tag by the ELISA methods; also called R222S HSP47; source: E. coli BL21 (DE3), purified as wild-type HSP47 (Streptactin column, Superdex 200 SEC)) LSPKAATLAERSAGLAFSLYQAMAKDQAVENILLSPVVVASSLGLVSLGGKATTASQAKAVLSAEQLRDEEVHAGLGELLRSLSNSTARNVTWKLGSRLYGPSSVSFAEDFVRSSKQHYNCEHSKINFRDKRSALQSINEWAAQTTDGKLPEVTKDVERTDGALLVNAMFFKPHWDEKFHHKMVDNSGFMVTRSYTVGVTMMHRTGLYNYYDDEKEKLQIVEMPLAHKLSSLIILMPHHVEPLERLEKLLTKEQLKIWMGKMQKKAVAISLPKGVVEVTHDLQKHLAGLGLTEAIDKNKADLSRMSGKKDLYLASVFHATAFEWDTEGNPFDQDIYGREELRSPKLFYADHPFIFLVRDTQSGSLLFIGRLVRPKGDKMRDEL	640	~3600
